Target: HDGF PWWP domain (human, UniProt P51858 1-100)
Experiment: size-exclusion chromatography; 5 mM EDTA; SEC: 20 mM Tris-HCl pH 7.5, 5 mM EDTA, 5 mM beta-ME, no added salt; protein:DNA 1:1, incubated overnight at 4 C
Details: protein: recombinant; tags: His tag (pET28a, NdeI/EcoRI, Ni-NTA); chain copies: 2; blunt

Chain of HDGF PWWP domain (P51858 1-100): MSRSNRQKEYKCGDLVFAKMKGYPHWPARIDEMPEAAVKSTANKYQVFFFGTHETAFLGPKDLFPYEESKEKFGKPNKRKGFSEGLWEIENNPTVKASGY

B1: 15-bp SMYD1 (dsDNA)
DNA 1: CAGGCTGGTCTTGAA
DNA 2: TTCAAGACCAGCCTG
- binding result: binds

B2: 5-bp SMYD1 (dsDNA)
DNA 1: CAGGC
DNA 2: GCCTG
- binding result: binds
